Assay results reported in patent publication US20210347908A1 (ELPISCIENCE SUZHOU BIOPHARMA, published 2021).
Substitutions are numbered along the chain they refer to.

B1: Antibody 001 (hybridoma antibody) (antibody, V domains shown)
VH: EVKLEESGGGLVQPGGSMKLSCVASGFTFRNYWMNWVRQSPERGLEWIAEISLKSNTYATHYAESVKGRFAISRDGSKSSFYLQMNDLRAEDTGIYYCTTFTKVVADWHLDVWGAGTTVTVSS
VL: DVLMTQTPLSLPVSLGDQASISCRSSQNIVHSNGNTYLEWYLQKPGQSPKLLIYKVSNRFSGVPDRFSGSGSGTDFTLRISRVEAEDLGVYYCFQGSHVPFTFGSGTKLEIK
notes: mouse hybridoma antibody
B2: Antibody 032 (hybridoma antibody) (antibody, V domains shown)
VH: B1 VH with K3R, A24V, S52T, G76D, A90P
VL: B1 VL with S14N
notes: mouse hybridoma antibody
B3: Antibody 002 (hybridoma antibody) (antibody, V domains shown)
VH: B1 VH with K19I, S52T, G76D, A90P
VL: B1 VL with V56I, K112Q
notes: mouse hybridoma antibody
B4: reference antibody HEFLB (antibody, V domains shown)
VH: EVQLVQSGAEVKKPGESLRISCKASGYSFTSYWVHWVRQMPGKGLEWMGNIDPSDSDTHYSPSFQGHVTLSVDKSISTAYLQLSSLKASDTAMYYCVRGGTGTLAYFAYWGQGTLVTVSS
VL: DVVMTQSPLSLPVTLGQPASISCRSSQSLVHSYGNTYLYWFQQRPGQSPRLLIYRVSNRFSGVPDRFSGSGSGTDFTLKISRVEAEDVGVYYCFQGTHVPYTFGGGTKVEIK
B5: Antibody 060 (hybridoma antibody) (antibody, V domains shown)
VH: QVQLKESGPGLVAPSESLSITCTVSGFSLTNYDISWIRQSPGKGLEWLGVIWTGGDTNFNSAFMSRLSISKDKSKSQVFLKLNSLQTDDTAIYYCVRVQYFGGSYGPMDYWGQGISVTVSS
VL: DIQMTQASSYLSVSLGGRVTITCEASDHINDWLAWYQQTPGNAPRLLISGATSLETGVPSRFSGSGSGKDYTLSITSLQTEDIATYYCQQYWNTPLTFGAGTRLELK
notes: mouse hybridoma antibody
B6: chimeric antibody 060c (antibody, V domains shown)
VH: B5 VH
VL: B5 VL

These binders were tested against T1, Fc tagged human SIRPα v2 ECD recombinant protein (human) (assay: ELISA).
T1 construct: range 1-369; cloned range M1-R369 includes the signal peptide; also called hSIRPα V2
Procedure, shortened: (§1)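 OD 450 nm readings gave EC₅₀ values after a TMB reaction of 15 min at room temperature, stopped with 1N HCl. Before that, antibodies were bound to antigen-coated wells for 1 h at 37° C. An HRP-labelled anti-mouse or anti-human IgG secondary was then applied for a further 1 h at 37° C.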
In the case of B1, the EC50 is reported as 0.07 nM.
Binder B2 has an EC50 of 0.04 nM.
B3 was tested, and the EC50 was 0.1 nM.

The binders below were run against T2, Fc tagged human SIRPβ ECD recombinant protein (human, UniProt O00241 30-371) (assay: ELISA).
T2 construct: range 1-371; cloned range includes the signal peptide; also called hSIRPβ; not shown: human IgG Fc region (hFc) of the pCPC vector
T2 sequence (O00241 30-371 limits assumed, form in doubt): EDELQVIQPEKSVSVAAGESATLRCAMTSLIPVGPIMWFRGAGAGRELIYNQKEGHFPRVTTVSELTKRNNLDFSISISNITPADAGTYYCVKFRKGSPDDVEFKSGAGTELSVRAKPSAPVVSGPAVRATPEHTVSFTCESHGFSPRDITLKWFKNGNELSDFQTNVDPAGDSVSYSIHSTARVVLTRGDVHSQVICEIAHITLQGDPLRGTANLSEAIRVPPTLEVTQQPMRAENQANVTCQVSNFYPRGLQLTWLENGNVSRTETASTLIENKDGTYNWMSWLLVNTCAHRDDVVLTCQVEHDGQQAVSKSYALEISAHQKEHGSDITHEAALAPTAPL
Procedure, shortened: as §1
B4 showed an EC50 of 0.17 nM.
B1 showed an EC50 of 0.12 nM.
B2 gave an EC50 of 0.02 nM.
B3 showed an EC50 of 0.16 nM.
Work on B5 yielded an EC50 of 0.04 nM.

Molecular target: T2, Fc tagged human SIRPβ ECD recombinant …
Assay: ELISA
Remark: another data set of the same source
Procedure, shortened: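 Fc-tagged human SIRP ECD proteins were coated on plates and incubated with purified antibodies at 37 °C for 1 h, then with HRP anti-mouse or anti-human IgG at 37 °C for 1 h. TMB was developed 15 min at room temperature and stopped with 1N HCl. EC₅₀ was calculated from OD 450 nm.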
B4 was tested, and the EC50 was 0.08 nM.
With B6 the EC50 was 0.24 nM.

The binders below were run against T3, biotin labeled soluble human SIRPα v1 ECD recombinant protein (human, UniProt P78324 31-373, biotin labeled) (assay: competitive ELISA; competitor 022).
T3 construct: extracellular domain
T3 sequence (P78324 31-373): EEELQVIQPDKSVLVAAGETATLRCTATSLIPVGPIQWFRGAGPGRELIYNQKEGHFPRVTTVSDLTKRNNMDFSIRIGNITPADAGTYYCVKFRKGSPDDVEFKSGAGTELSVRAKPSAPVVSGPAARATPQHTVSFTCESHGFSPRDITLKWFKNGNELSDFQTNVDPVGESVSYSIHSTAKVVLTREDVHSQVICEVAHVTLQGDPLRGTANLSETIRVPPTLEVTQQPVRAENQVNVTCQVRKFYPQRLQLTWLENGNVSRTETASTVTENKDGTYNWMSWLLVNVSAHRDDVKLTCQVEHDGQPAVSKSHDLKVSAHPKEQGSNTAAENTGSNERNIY
Procedure: (§2) Competitive ELISA assay was used for epitope binning of 9 functional antibodies. Briefly excessive competitor antibody and biotin labeled soluble human SIRPα v1 ECD recombinant protein were co-incubated with ELISA microplate coated antibody. After washing, HRP-SA was added and incubated at 37° C. for 1 hour. Then, […] of TMB solution (Biotechnology) was added. After incubation for 15 minutes at room temperature, the reaction was stopped by the addition of […] of 1N HCl. OD 450 nm was read. Competition ratio was calculated. The antibodies that can compete each other for binding to SIRPα have the similar binding epitope.
For B4, the “% Competition” value was 4%.
For B1, the “% Competition” value was -19%.
In the case of B2, the “% Competition” value is reported as 1%.
With B3 the “% Competition” value was -5%.
For B5, the “% Competition” value was 10%.

What follows are binders tested against T3, biotin labeled soluble human SIRPα v1 … (assay: competitive ELISA; competitor 050).
Procedure: as §2
In the case of B4, the “% Competition” value is reported as 4%.
B1 was tested, and the “% Competition” value was 5%.
For B2, the “% Competition” value was 4%.
In the case of B3, the “% Competition” value is reported as -13%.
B5 was tested, and the “% Competition” value was 14%.

The binders below were run against T3, biotin labeled soluble human SIRPα v1 … (assay: competitive ELISA; competitor 074).
Procedure: as §2
B4 was tested, and the “% Competition” value was 2%.
With B1 the “% Competition” value was 5%.
B2 was tested, and the “% Competition” value was 6%.
For B3, the “% Competition” value was -10%.
For B5, the “% Competition” value was -1%.

The binders below were run against T3, biotin labeled soluble human SIRPα v1 … (assay: competitive ELISA; competitor HEFLB).
Procedure: as §2
With B4 the “% Competition” value was 88%.
B1 was tested, and the “% Competition” value was 36%.
For B2, the “% Competition” value was 14%.
B3 was tested, and the “% Competition” value was 7%.
In the case of B5, the “% Competition” value is reported as -3%.

These binders were tested against T3, biotin labeled soluble human SIRPα v1 … (assay: competitive ELISA; competitor KWAR23).
Procedure: as §2
B4 was tested, and the “% Competition” value was 94%.
With B1 the “% Competition” value was 83%.
For B2, the “% Competition” value was 69%.
In the case of B3, the “% Competition” value is reported as 71%.
B5 was tested, and the “% Competition” value was -4%.

What follows are binders tested against T3, biotin labeled soluble human SIRPα v1 … (assay: competitive ELISA; competitor 29-AM4-5).
Procedure: as §2
In the case of B4, the “% Competition” value is reported as 70%.
B1 was tested, and the “% Competition” value was 92%.
B2 was tested, and the “% Competition” value was 83%.
With B3 the “% Competition” value was 87%.
B5 was tested, and the “% Competition” value was -5%.

Each binder was assayed against T4, chimeric SIRPα of B-hSIRPA mice (IgV domain of human SIRPα); IgC1/C2, transmembrane and intracellular domains … (human; mouse, UniProt P78324 31-149; P97797 151-513, limits assumed) (assay: FACS on spleen cells of B-hSIRPA mice, anti-human IgG secondary antibody, gated on mCD11b/mF4/80 double positive monocytes).
T4 construct: domain: IgV domain;domain: IgC1/C2, transmembrane and intracellular domains; whole, on cells (mCD11b+ mF4/80+ spleen monocytes); also called B-hSIRPA mice derived primary monocytes
T4 sequence (P78324 other isoform, or with tags, fused parts or gaps mutant limits assumed): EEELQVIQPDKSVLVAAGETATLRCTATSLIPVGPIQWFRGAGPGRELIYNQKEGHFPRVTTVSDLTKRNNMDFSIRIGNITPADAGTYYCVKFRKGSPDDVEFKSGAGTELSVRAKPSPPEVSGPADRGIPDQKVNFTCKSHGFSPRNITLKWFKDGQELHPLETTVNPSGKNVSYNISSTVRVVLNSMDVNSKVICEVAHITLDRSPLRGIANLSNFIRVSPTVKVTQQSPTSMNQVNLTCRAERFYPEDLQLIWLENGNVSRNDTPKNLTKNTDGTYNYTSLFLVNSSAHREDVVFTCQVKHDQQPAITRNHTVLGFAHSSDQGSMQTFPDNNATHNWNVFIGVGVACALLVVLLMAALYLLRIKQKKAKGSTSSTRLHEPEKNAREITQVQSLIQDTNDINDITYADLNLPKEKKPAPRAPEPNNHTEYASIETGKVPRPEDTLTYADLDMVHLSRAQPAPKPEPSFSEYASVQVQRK
Procedure: The humanized mice express a chimeric SIRPα, comprised of IgV domain of human SIRPα and IgC1/C2, transmembrane and intracellular domains of mouse SIRPα. Briefly spleen cells of B-hSIRPA mice were harvested and incubated with anti-SIRPα chimeric antibodies at 4° C. for 1 hour. After washing, fluorescence labeled anti-human IgG 2nd antibody (Life Technologies) was added and incubated at 4° C. for 1 hour. […] Anti-SIRPα positive staining population in mCD11b and mF4/80 double positive subset was calculated.
In the case of B6, the “Positive Staining Population (% in mCD11b, mF4/80 double positive subset)” value is reported as 86%.
